Source: the supplement of paper PMC7877785
± gives the uncertainty stated by the source.

Assay: self-splicing fitness, log relative to wild type (ln ratio); higher = more splicing; Tetrahymena group I intron in knt gene, E. coli kanamycin selection, DiMSum; sequences stand for … in CUCUCU…GGAGGGAAAAGUUAUCAGGCAUGCACCUGGUAGCUAGUCUUUAAACCAAUAGAUUGCAUCGGUUUAAAAGGCAAGACCGUCAAAUUGCGGGAAAGGGGUCAACAGCCGUUCAGUACCAAGUCUCAGGGGAAACUUUGAGAUGGCCUUGCAAAGGGUAUGGUAAUAAGCUGACGGACAUGGUCCUAACCACGCAGCCAAGUCCUAAGUCAACAGAUCUUCUGUUGAUAUGGAUGCAGUUCACAGACUAAAUGUCGGUCGGGGAAGAUGUAUUCUUCUCAUAAGAUAUAGUCGGACCUCUCCUUAAUGGGAGCUAGCGGAUGAAGUGAUGCAACACUGGAGCCGCUGGGAACUAAUUUGUAUGCGAAAGUAUAUUGAUUAGUUUUGGAGUACUCGUGGUCG
In short: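 A randomised library covering all eight P1ex-region intron nucleotides was built with the intron in the knt kanamycin-resistance gene on pET-22b(+) and held in E. coli BL21(DE3). Cells were grown overnight at 37°C or 30°C on LB agar, with or without 25 μg/mL kanamycin, plus 100 μg/mL carbenicillin, 50 μM IPTG and 0.2% rhamnose, and pooled colonies were amplicon-sequenced on an Illumina HiSeq 2500. DiMSum fitness is the error-weighted combination of wild-type-normalised replicate fold changes, kanamycin versus none.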

Sequence | self-splicing fitness (ln) (30 °C) | self-splicing fitness (ln) (37 °C)
AGAAAGCAAUAUUACGCGGU | -3.13 ± 0.17 | -1.92 ± 0.21
CUGCAGCAAUAUUACGUACG | -0.548 ± 0.082 | 0.0422 ± 0.11
UAAAAGCAAUAUUACGCCUA | 0.161 ± 0.073 | -0.367 ± 0.081
GCUGAGCAAUAUUACGUAGG | -1.82 ± 0.084 | -1.24 ± 0.12
CUACAGCAAUAUUACGGCAC | -3.29 ± 0.23 | -2.45 ± 0.32
AUUGAGCAAUAUUACGAGGU | -3.14 ± 0.36 | -2.02 ± 0.36
AAAGAGCAAUAUUACGGCGA | -1.65 ± 0.22 | -1.26 ± 0.3
CCUGAGCAAUAUUACGCAAU | -3.31 ± 0.19 | -2.68 ± 0.24
CAUCAGCAAUAUUACGGGGA | -2.59 ± 0.14 | -1.22 ± 0.12
ACCAAGCAAUAUUACGCCAA | -1.97 ± 0.18 | -2.71 ± 0.23
CGAGAGCAAUAUUACGAUAG | -2.68 ± 0.18 | -2.11 ± 0.18
UGGCAGCAAUAUUACGGUGA | -0.428 ± 0.097 | 0.214 ± 0.12
CUUGAGCAAUAUUACGUUUC | -3.44 ± 0.27 | -2.68 ± 0.36
CUUCAGCAAUAUUACGCCGC | -3.14 ± 0.37 | -2.43 ± 0.35
UCGUAGCAAUAUUACGGGUC | -3.02 ± 0.26 | -4.36 ± 0.46
UUCAAGCAAUAUUACGCCGG | -0.231 ± 0.097 | -0.469 ± 0.13
AGCGAGCAAUAUUACGCGGU | – | -2.53 ± 0.32
CAUCAGCAAUAUUACGGAGC | -3.44 ± 0.31 | -2.1 ± 0.31
UAAAAGCAAUAUUACGGUAA | -1.94 ± 0.14 | -0.97 ± 0.098
AAAAAGCAAUAUUACGUACG | -1.1 ± 0.055 | -0.101 ± 0.076

Sequence | self-splicing fitness (ln) (30 °C) | self-splicing fitness (ln) (37 °C)
UCGCAGCAAUAUUACGUUGG | -2.56 ± 0.11 | -2.12 ± 0.12
GCUUAGCAAUAUUACGCCGC | -3.07 ± 0.5 | –
UUUAAGCAAUAUUACGCACC | -2.05 ± 0.21 | -0.66 ± 0.22
UAUCAGCAAUAUUACGACCU | -0.529 ± 0.071 | 0.112 ± 0.1
UUAUAGCAAUAUUACGCGGA | -1.6 ± 0.12 | -0.96 ± 0.14
GAACAGCAAUAUUACGCUUG | -0.92 ± 0.072 | -0.731 ± 0.087
UUUUAGCAAUAUUACGAGUG | -1.75 ± 0.13 | -1.26 ± 0.13
UUGUAGCAAUAUUACGCCAA | -1.22 ± 0.13 | -0.297 ± 0.13
UCGGAGCAAUAUUACGGGAG | – | -2.24 ± 0.44
GUUUAGCAAUAUUACGAUUA | -1.93 ± 0.16 | -1.01 ± 0.2
CAAUAGCAAUAUUACGAGCA | -2.05 ± 0.34 | -0.415 ± 0.3
CCAGAGCAAUAUUACGAAUA | -2.84 ± 0.23 | -3.27 ± 0.42
CGGUAGCAAUAUUACGAACA | -0.899 ± 0.16 | -0.395 ± 0.2
AUCGAGCAAUAUUACGCGGG | -2.23 ± 0.24 | -1.21 ± 0.29
ACGAAGCAAUAUUACGGGGA | -2.81 ± 0.21 | -1.57 ± 0.16
UUCUAGCAAUAUUACGGCUG | -2.38 ± 0.21 | -1.6 ± 0.2
GGGCAGCAAUAUUACGAUAC | -1.1 ± 0.11 | 0.201 ± 0.12
UCGUAGCAAUAUUACGCAUG | -2.33 ± 0.18 | -0.84 ± 0.16
UACCAGCAAUAUUACGCUUA | -0.566 ± 0.056 | -0.478 ± 0.07
